Article PMC3689846 (Science (New York, N.Y.), 2013)

Target: eOD-GT6 (germline-targeting engineered outer domain of gp120) (HIV-1 isolate HXB2, engineered outer …)
Experiment: SPR

B1: NIH45-46 (mature) (antibody, V domains shown)
VH: QVRLSQSGGQMKKPGESMRLSCRASGYEFLNCPINWIRLAPGRRPEWMGWLKPRGGAVNYARKFQGRVTMTRDVYSDTAFLELRSLTSDDTAVYFCTRGKYCTARDYYNWDFEHWGRGAPVTVSS
VL: EIVLTQSPATLSLSPGETAIISCRTSQSGSLAWYQQRPGQAPRLVIYSGSTRAAGIPDRFSGSRWGADYNLSISNLESGDFGVYYCQQYEFFGQGTKVQVD
Kd: 4 nM
